From patent publication US20030068675, “Position dependent recognition of GNN nucleotide triplets by zinc fingers” (published 2003)

Experiments:
Assay in all cases: EMSA
Conditions in all cases: tags: MBP fusion
[1] = target: T1, ZFP SBS#1091 (synthetic)
T1 chain: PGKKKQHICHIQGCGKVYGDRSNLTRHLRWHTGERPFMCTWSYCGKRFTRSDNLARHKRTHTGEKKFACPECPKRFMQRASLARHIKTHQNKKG
Outline: (§1)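 Purified ZFP was titrated against labeled double-stranded target (1 nM or lower, at least 10-fold below expected Kd) carrying the natural binding site with flanks. Binding buffer was 10 mM Tris pH 7.5, 100 mM KCl, 1 mM MgCl2, 0.1 mM ZnCl2, 5 mM DTT, 10% glycerol, 0.02% BSA, with equilibration for at least 45 min. Bound and free target were separated on a 10% polyacrylamide gel.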

[2] = target: T2, ZFP SBS#1169 (synthetic)
T2 chain: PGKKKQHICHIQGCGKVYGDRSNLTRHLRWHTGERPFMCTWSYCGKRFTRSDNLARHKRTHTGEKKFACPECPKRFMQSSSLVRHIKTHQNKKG
Outline: as §1

[3] = target: T3, ZFP SBS#1159 (synthetic)
T3 chain: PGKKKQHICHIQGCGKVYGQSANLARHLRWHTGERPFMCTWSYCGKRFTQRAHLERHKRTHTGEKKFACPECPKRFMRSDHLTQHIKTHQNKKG
Outline: as §1

[4] = target: ZFP SBS#1158 (synthetic)
Outline: as §1

[5] = target: T4, ZFP SBS#1092 (synthetic)
T4 chain: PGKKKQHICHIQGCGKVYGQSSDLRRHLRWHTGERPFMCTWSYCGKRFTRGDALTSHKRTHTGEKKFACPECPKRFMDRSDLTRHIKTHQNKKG
Outline: as §1

[6] = target: T5, ZFP SBS#1170 (synthetic)
T5 chain: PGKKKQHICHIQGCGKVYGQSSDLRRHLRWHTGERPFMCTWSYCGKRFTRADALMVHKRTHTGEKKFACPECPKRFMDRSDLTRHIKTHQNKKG
Outline: as §1

[7] = target: T6, ZFP SBS#1152 (synthetic)
T6 chain: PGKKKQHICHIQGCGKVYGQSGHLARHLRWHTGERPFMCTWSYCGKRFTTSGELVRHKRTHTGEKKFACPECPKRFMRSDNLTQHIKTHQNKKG
Outline: as §1

[8] = target: T7, ZFP SBS#1153 (synthetic)
T7 chain: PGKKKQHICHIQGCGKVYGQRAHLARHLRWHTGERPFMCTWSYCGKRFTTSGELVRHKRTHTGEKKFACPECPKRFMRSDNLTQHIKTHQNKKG
Outline: as §1

[9] = target: T8, ZFP SBS#1171 (synthetic)
T8 chain: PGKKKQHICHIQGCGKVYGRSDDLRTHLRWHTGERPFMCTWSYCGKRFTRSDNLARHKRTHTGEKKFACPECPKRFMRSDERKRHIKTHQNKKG
Outline: as §1

[10] = target: T9, ZFP SBS#1099 (synthetic)
T9 chain: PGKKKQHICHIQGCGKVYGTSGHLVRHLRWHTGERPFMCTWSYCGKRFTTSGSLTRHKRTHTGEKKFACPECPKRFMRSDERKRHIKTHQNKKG
Outline: as §1

[11] = target: ZFP SBS#1093 (synthetic)
Outline: as §1

[12] = target: ZFP SBS#1098 (synthetic)
Outline: as §1

[13] = target: T10, ZFP SBS#1172 (synthetic)
T10 chain: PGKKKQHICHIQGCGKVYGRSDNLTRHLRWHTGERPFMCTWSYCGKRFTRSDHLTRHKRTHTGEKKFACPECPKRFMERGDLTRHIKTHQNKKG
Outline: as §1

[14] = target: T11, ZFP SBS#1160 (synthetic)
T11 chain: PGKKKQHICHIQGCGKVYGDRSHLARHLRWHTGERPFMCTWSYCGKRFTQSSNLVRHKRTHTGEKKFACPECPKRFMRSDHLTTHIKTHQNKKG
Outline: as §1

[15] = target: T12, ZFP SBS#1100 (synthetic)
T12 chain: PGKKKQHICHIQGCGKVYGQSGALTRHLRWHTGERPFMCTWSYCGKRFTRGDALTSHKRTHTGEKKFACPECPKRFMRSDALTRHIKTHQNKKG
Outline: as §1

[16] = target: T13, ZFP SBS#1162 (synthetic)
T13 chain: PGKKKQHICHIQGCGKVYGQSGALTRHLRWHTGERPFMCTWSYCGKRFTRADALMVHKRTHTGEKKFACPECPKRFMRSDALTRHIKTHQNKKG
Outline: as §1

[17] = target: T14, ZFP SBS#1154 (synthetic, UniProt P08047)
T14 chain: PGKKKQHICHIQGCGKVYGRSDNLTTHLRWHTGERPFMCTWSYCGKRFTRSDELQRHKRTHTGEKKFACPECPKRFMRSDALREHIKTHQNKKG
Outline: as §1

[18] = target: ZFP SBS#1149 (synthetic)
Outline: as §1

[19] = target: T15, ZFP SBS#1148 (synthetic)
T15 chain: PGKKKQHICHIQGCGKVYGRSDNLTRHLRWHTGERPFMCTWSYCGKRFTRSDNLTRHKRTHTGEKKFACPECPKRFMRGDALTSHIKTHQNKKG
Outline: as §1

[20] = target: T16, ZFP SBS#1128 (synthetic)
T16 chain: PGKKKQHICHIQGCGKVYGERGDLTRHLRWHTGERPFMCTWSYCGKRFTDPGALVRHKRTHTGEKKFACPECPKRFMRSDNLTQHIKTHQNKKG
Outline: as §1

[21] = target: ZFP SBS#1175 (synthetic)
Outline: as §1

[22] = target: T17, ZFP SBS#1161 (synthetic)
T17 chain: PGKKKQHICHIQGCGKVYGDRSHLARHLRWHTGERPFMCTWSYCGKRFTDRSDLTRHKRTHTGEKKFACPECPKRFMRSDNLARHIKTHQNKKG
Outline: as §1

[23] = target: ZFP SBS#1166 (synthetic)
Outline: as §1

[24] = target: ZFP SBS#1167 (synthetic)
Outline: as §1

[25] = target: ZFP SBS#1165 (synthetic)
Outline: as §1

[26] = target: T18, ZFP SBS#1090 (synthetic, UniProt P08047)
T18 chain: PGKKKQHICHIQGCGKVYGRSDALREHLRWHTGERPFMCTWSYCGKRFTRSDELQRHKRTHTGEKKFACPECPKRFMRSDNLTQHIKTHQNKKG
Outline: as §1

[27] = target: ZFP SBS#1168 (synthetic)
Outline: as §1

[28] = target: ZFP SBS#477 (synthetic)
Outline: as §1

[29] = target: ZFP SBS#476 (synthetic, UniProt P08047)
Outline: as §1

[30] = target: ZFP SBS#478 (synthetic, UniProt P08047)
Outline: as §1

[31] = target: T19, ZFP SBS#1164 (synthetic)
T19 chain: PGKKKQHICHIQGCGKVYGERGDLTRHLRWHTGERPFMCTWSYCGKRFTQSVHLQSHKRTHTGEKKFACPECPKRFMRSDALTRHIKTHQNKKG
Outline: as §1

[32] = target: T20, ZFP SBS#1163 (synthetic)
T20 chain: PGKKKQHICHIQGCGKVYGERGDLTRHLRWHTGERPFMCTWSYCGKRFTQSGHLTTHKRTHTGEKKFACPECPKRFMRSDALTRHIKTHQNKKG
Outline: as §1

[33] = target: ZFP SBS#1174 (synthetic)
Outline: as §1

[34] = target: ZFP SBS#1173 (synthetic)
Outline: as §1

[35] = target: T21, ZFP SBS#1177 (synthetic)
T21 chain: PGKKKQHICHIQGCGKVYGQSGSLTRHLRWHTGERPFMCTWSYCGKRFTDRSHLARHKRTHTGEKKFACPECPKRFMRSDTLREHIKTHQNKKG
Outline: as §1

[36] = target: T22, ZFP SBS#1131 (synthetic)
T22 chain: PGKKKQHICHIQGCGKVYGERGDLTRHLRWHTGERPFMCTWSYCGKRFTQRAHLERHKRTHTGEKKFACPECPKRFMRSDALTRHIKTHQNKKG
Outline: as §1

[37] = target: ZFP SBS#1176 (synthetic)
Outline: as §1

B1: GTAGAGGAC (dsDNA)
DNA 1: GTAGAGGAC
DNA 2: GTCCTCTAC
- Kd [1]: 0.085 nM
- Kd [2]: 0.053 nM

B2: AGGGGAGAA (dsDNA)
DNA 1: AGGGGAGAA
DNA 2: TTCTCCCCT
- Kd [3]: 0.555 nM
- Kd [4]: 0.1 nM

B3: GCCTTGGCT (dsDNA)
DNA 1: GCCTTGGCT
DNA 2: AGCCAAGGC
- Kd [5]: 2.73 nM
- Kd [6]: 2.75 nM

B4: AAGGCTGGA (dsDNA)
DNA 1: AAGGCTGGA
DNA 2: TCCAGCCTT
- Kd [7]: 1.6 nM
- Kd [8]: 8.2 nM

B5: GCGGAGTCG (dsDNA)
DNA 1: GCGGAGTCG
DNA 2: CGACTCCGC
- Kd [9]: 0.18 nM
- Kd [10]: 0.45 nM
- Kd [11]: 0.046 nM

B6: GCCGGGGAG (dsDNA)
DNA 1: GCCGGGGAG
DNA 2: CTCCCCGGC
- Kd [12]: 0.055 nM
- Kd [13]: 0.01 nM

B7: TGGGAAGGC (dsDNA)
DNA 1: TGGGAAGGC
DNA 2: GCCTTCCCA
- Kd [14]: 0.415 nM

B8: GTGTTGGTA (dsDNA)
DNA 1: GTGTTGGTA
DNA 2: TACCAACAC
- Kd [15]: 1.4 nM
- Kd [16]: 0.465 nM

B9: CTGGCGTAG (dsDNA)
DNA 1: CTGGCGTAG
DNA 2: CTACGCCAG
- Kd [17]: 1.04 nM

B10: TTGGAGGAG (dsDNA)
DNA 1: TTGGAGGAG
DNA 2: CTCCTCCAA
- Kd [18]: 4 pM
- Kd [19]: 6 pM

B11: AAGGTCGCC (dsDNA)
DNA 1: AAGGTCGCC
DNA 2: GGCGACCTT
- Kd [20]: 5.45 nM
- Kd [21]: 8.9 nM

B12: GAGGCCGGC (dsDNA)
DNA 1: GAGGCCGGC
DNA 2: GCCGGCCTC
- Kd [22]: 0.45 nM

B13: GCGAAGGTG (dsDNA)
DNA 1: GCGAAGGTG
DNA 2: CACCTTCGC
- Kd [23]: 0.195 nM
- Kd [24]: 0.95 nM
- Kd [25]: 1.4 nM

B14: AAGGCGCTG (dsDNA)
DNA 1: AAGGCGCTG
DNA 2: CAGCGCCTT
- Kd [26]: 30.3 nM
- Kd [27]: 2.8 nM

B15: GGAGAGGATG (dsDNA)
DNA 1: GGAGAGGATG
DNA 2: CATCCTCTCC
- Kd [28]: 100 nM
- Kd [29]: 80 nM
- Kd [30]: 60 nM

B16: GTGTGAGCC (dsDNA)
DNA 1: GTGTGAGCC
DNA 2: GGCTCACAC
- Kd [31]: 15.4 nM
- Kd [32]: 1.45 nM

B17: GCTGAAGGG (dsDNA)
DNA 1: GCTGAAGGG
DNA 2: CCCTTCAGC
- Kd [33]: 0.018 nM
- Kd [34]: 8 pM

B18: CCGGGCGCA (dsDNA)
DNA 1: CCGGGCGCA
DNA 2: TGCGCCCGG
- Kd [35]: 4.1 nM

B19: GTGGGAGCC (dsDNA)
DNA 1: GTGGGAGCC
DNA 2: GGCTCCCAC
- Kd [36]: 0.95 nM
- Kd [37]: 4.1 nM
